In publication PMC5297747, “Pnserpin: A Novel Serine Protease Inhibitor from Extremophile Pyrobaculum neutrophilum” (International Journal of Molecular Sciences, 2017):

B1: proteinase k (enzyme, UniProt P06873 106-384, looked up)
chain: AAQTNAPWGLARISSTSPGTSTYYYDESAGQGSCVYVIDTGIEASHPEFEGRAQMVKTYYYSSRDGNGHGTHCAGTVGSRTYGVAKKTQLFGVKVLDDNGSGQYSTIIAGMDFVASDKNNRNCPKGVVASLSLGGGYSSSVNSAAARLQSSGVMVAVAAGNNNADARNYSPASEPSVCTVGASDRYDRRSSFSNYGSVLDIFGPGTSILSTWIGGSTRSISGTSMATPHVAGLAAYLMTLGKTTAASACRYIADTANKGDLSNIPFGTVNLLAYNNYQA
notes: proteinase K; printed molecular weight 28 kD; also called PRK
B2: Pnserpin (natural protein, Pyrobaculum neutrophilum, UniProt B1YBN4 1-393, looked up)
chain: MRLWALLPVTLALVVLLIFIVSLKEASTHSPPTSHTSAPAPLESGSYGDFAVSFYKRIALERLRENLVLSPYSVYKAFAMAYAGAAGETREEIGRVFGFGDDVCALAQAGRGVEEAVAAWVQLGFPLREEYERELSCLGAELRRVDFAERSALVEINRWIEEKTRGYVKDLIPTDYPRSQDIRVVLTSALFFNGSWWPLQFGRIGKREFQGVGPVEFMKLDLGSCVPSLRGRVSADLTVVELRFENTDVAMYVIMPKSLEDYVKGLTYEKLKRDITELPDEIVAVTMPLFTAEFKDSLKKVLIDIGIRSAFDKTRANFTRMSPIRIYIDEVFHGAYIKADEKGVVATAATAVVFVPVCAKVGGMEVVIDRPFLFVLADRRDGTIYFIGHVVKP
B3: PnCHT, chymotrypsin-like serine protease of Pyrobaculum neutrophilum (enzyme, UniProt B1YBJ2 1-289, looked up)
chain: MDLSGLVEKVARSVVGVAARGVGAVGEGFGSAFAIDRGVYATAYHVVAQAGEVALITPEGEVADAVVAAADPAEDLAILYSDLYAVPLSLGSALRLRVGQGVVAVGFPLALLDKPTATFGIVSAVGRSLRAGDRFFEYLVQTDAAINPGNSGGPLVNLSGEAVGVCSAVIAGAQGLGFAVPIDLVRIMYQMVKRYGRYVRPALGVYVVALNKALKALYGLPTDRGLLVVDVVPSSPAEEMGIARGDILTKVDGREVANVFELRLLIGEALIQGRTPRIEVIRGGRRIEL
notes: chymotrypsin-like serine protease of Pyrobaculum neutrophilum, GenBank ACB40794.1; full length gene synthesized and cloned into pET-28a(+); printed molecular weight 36 kD; source: E. coli BL21 (DE3) CodonPlus, purified (nickel-chelating chromatography)
B4: subtilisin Carlsberg (enzyme, UniProt P00780 106-379, looked up)
chain: AQTVPYGIPLIKADKVQAQGFKGANVKVAVLDTGIQASHPDLNVVGGASFVAGEAYNTDGNGHGTHVAGTVAALDNTTGVLGVAPSVSLYAVKVLNSSGSGSYSGIVSGIEWATTNGMDVINMSLGGASGSTAMKQAVDNAYAKGVVVVAAAGNSGSSGNTNTIGYPAKYDSVIAVGAVDSNSNRASFSSVGAELEVMAPGAGVYSTYPTNTYATLNGTSMASPHVAGAAALILSKHPNLSASQVRNRLSSTATYLGSSFYYGKGLINVEAAAQ
notes: subtilisin Carlsberg; printed molecular weight 27 kD; also called SUC

Key:
Pnserpin [1] = target: B2; experiment: progress curve of protease inhibition; 40 °C; buffer B (100 mM HEPES-NaOH pH 7.5, 200 mM NaCl, 10 mM CaCl2, 0.01% triton X-100, 0.1% glycerol); 1 mM Suc-AAPF-pNA or MeO-SucAAPV-pNA as substrate; various concentrations of Pnserpin; absorption at 410 nm; kass = kunc × (1 + [S]/KM); conditions: both partners purified
subtilisin Carlsberg = target: B4; experiment: cell-based or functional assay
[2] = target: porcine pancreatic elastase (porcine, UniProt P00772 27-266); experiment: cell-based or functional assay
porcine pancreatic elastase, sequence (P00772 27-266): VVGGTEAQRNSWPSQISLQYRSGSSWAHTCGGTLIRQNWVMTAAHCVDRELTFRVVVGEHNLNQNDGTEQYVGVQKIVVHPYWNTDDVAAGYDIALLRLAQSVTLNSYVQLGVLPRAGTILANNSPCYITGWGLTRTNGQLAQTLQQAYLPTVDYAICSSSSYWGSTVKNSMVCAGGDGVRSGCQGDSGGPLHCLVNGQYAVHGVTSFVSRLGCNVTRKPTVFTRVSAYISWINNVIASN

[3] = target: B3; experiment: cell-based or functional assay
proteinase k = target: B1; experiment: cell-based or functional assay
bovine plasma thrombin = bovine plasma thrombin (bovine); experiment: cell-based or functional assay
[4] = target: bovine pancreatic trypsin (bovine); experiment: cell-based or functional assay
bovine pancreatic trypsin (bovine), sequence (P00760 24-246): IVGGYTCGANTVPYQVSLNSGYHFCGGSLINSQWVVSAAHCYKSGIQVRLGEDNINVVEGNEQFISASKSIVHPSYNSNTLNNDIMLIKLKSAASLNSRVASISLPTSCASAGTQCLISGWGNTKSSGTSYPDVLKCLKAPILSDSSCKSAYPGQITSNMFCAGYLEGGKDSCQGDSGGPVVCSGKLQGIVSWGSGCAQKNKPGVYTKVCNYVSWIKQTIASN

Pnserpin [5] = target: B2; experiment: progress curve of protease inhibition; 80 °C; buffer B; 1 mM Suc-AAPF-pNA as substrate; various concentrations of Pnserpin; absorption at 410 nm; kass = kunc × (1 + [S]/KM); conditions: both partners purified

B1
kon (Pnserpin [1]): 198000 M⁻¹ s⁻¹

B2
stoichiometry of inhibition (SI), incubation at 20 °C; residual protease activity (subtilisin Carlsberg): 10
stoichiometry of inhibition (SI), incubation at 30 °C; residual protease activity (subtilisin Carlsberg): 8.76
stoichiometry of inhibition (SI), incubation at 40 °C; residual protease activity (subtilisin Carlsberg): 6.95
stoichiometry of inhibition (SI), incubation at 50 °C; residual protease activity (subtilisin Carlsberg): 5.34
stoichiometry of inhibition (SI), incubation at 60 °C; residual protease activity (subtilisin Carlsberg): 3.97
stoichiometry of inhibition (SI), incubation at 70 °C; residual protease activity (subtilisin Carlsberg): 2.67
stoichiometry of inhibition (SI), incubation at 20 °C; residual protease activity [2]: 10.1
stoichiometry of inhibition (SI), incubation at 30 °C; residual protease activity [2]: 9.33
stoichiometry of inhibition (SI), incubation at 40 °C; residual protease activity [2]: 7.9
stoichiometry of inhibition (SI), incubation at 50 °C; residual protease activity [2]: 7.41
stoichiometry of inhibition (SI), incubation at 60 °C; residual protease activity [2]: 4.84
stoichiometry of inhibition (SI), incubation at 70 °C; residual protease activity [2]: 2.74
stoichiometry of inhibition (SI), incubation at 20 °C; residual protease activity [3]: 32.7
stoichiometry of inhibition (SI), incubation at 40 °C; residual protease activity [3]: 23.9
stoichiometry of inhibition (SI), incubation at 60 °C; residual protease activity [3]: 19.8
stoichiometry of inhibition (SI), incubation at 80 °C; residual protease activity [3]: 11.3
stoichiometry of inhibition (SI), incubation at 100 °C; residual protease activity [3]: 6.82
stoichiometry of inhibition (SI), incubation at 20 °C; residual protease activity (proteinase k): 9.99
stoichiometry of inhibition (SI), incubation at 30 °C; residual protease activity (proteinase k): 7.39
stoichiometry of inhibition (SI), incubation at 40 °C; residual protease activity (proteinase k): 5.99
stoichiometry of inhibition (SI), incubation at 50 °C; residual protease activity (proteinase k): 4.69
stoichiometry of inhibition (SI), incubation at 60 °C; residual protease activity (proteinase k): 2.75
stoichiometry of inhibition (SI), incubation at 70 °C; residual protease activity (proteinase k): 2.28
stoichiometry of inhibition (SI), incubation at 20 °C; residual protease activity (bovine plasma thrombin): 21.1
stoichiometry of inhibition (SI), incubation at 30 °C; residual protease activity (bovine plasma thrombin): 15.2
stoichiometry of inhibition (SI), incubation at 40 °C; residual protease activity (bovine plasma thrombin): 12.2
stoichiometry of inhibition (SI), incubation at 50 °C; residual protease activity (bovine plasma thrombin): 9.31
stoichiometry of inhibition (SI), incubation at 20 °C; residual protease activity [4]: 10.2
stoichiometry of inhibition (SI), incubation at 30 °C; residual protease activity [4]: 6.14
stoichiometry of inhibition (SI), incubation at 40 °C; residual protease activity [4]: 5.16
stoichiometry of inhibition (SI), incubation at 50 °C; residual protease activity [4]: 2.53

B3
kon (Pnserpin [1]): 39000 M⁻¹ s⁻¹
kon (Pnserpin [5]): 107000 M⁻¹ s⁻¹

B4
kon (Pnserpin [1]): 130000 M⁻¹ s⁻¹
